Source: patent US20160083476A1 (CENTRE NATIONAL DE LA RECHERCHE SCIENTIFIQUE CNRS, published 2016)

Key:
[1] = target: T1, extracellular region of the human recombinant carcinoembryonary antigen (CEA) (human, UniProt P06731 35-676, limits assumed); experiment: SPR, BIACORE 3000; VHH captured on immobilised anti-c-myc mAb 9E10, CEA injected
T1 construct: extracellular domain; The Biacore paragraph says only 'CEA'; also called rhCEA
T1 sequence (looked up): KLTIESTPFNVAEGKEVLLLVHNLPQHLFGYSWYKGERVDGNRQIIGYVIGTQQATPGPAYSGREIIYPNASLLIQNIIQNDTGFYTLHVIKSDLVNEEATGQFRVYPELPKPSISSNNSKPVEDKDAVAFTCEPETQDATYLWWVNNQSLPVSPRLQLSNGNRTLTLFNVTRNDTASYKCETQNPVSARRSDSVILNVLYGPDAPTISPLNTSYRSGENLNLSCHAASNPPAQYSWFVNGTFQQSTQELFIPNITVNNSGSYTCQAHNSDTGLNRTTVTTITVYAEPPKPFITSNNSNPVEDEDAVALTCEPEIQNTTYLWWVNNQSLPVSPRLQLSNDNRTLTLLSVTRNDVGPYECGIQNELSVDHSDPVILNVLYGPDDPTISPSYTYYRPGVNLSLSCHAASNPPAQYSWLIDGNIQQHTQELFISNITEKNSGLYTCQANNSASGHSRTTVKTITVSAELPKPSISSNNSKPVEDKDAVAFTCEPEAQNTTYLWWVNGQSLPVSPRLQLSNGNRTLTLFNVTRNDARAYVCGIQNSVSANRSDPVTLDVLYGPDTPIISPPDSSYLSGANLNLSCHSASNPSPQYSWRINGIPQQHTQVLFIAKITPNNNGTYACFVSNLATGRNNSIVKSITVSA
Method: The VHH (in buffer: 10 mM HEPES; 150 mM NaCl; 3 mM EDTA; 0.005% surfactant P20) is then injected and then a range of CEA or CD16 is injected on the VHH immobilised on the 9E10.

[2] = target: T2, NCA expressed at the surface of MC38/NCA+ cells and granulocytes (UniProt P40199 35-320, limits assumed); experiment: FACS on MC38/NCA+ cells and granulocytes
T2 construct: whole, on cells
T2 sequence (looked up): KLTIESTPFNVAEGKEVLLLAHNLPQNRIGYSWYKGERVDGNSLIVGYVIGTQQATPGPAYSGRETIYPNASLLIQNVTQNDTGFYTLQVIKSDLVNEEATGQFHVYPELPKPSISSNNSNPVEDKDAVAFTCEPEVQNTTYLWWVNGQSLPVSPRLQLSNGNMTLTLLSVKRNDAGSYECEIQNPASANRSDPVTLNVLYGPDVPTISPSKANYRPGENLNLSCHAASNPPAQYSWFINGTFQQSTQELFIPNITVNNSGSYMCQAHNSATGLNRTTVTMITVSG

[3] = target: extracellular region of human recombinant (CD16B) receptor FcγRIIIB (human) (UniProt O75015); experiment: SPR, BIACORE 3000; VHH captured on immobilised anti-c-myc mAb 9E10, CD16 injected
Chain of extracellular region of human recombinant (CD16B) receptor FcγRIIIB (human) (O75015 17-200 limits assumed): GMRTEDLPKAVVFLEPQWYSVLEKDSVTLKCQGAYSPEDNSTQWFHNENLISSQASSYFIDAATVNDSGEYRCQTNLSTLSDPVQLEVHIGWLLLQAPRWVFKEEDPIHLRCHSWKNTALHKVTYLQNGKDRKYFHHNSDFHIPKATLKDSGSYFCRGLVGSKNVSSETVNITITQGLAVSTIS

[4] = target: T2, NCA expressed at the surface of …; experiment: FACS on cells, detection by 9E10 anti-c-myc then anti-mouse IgG-FITC
Method: At each step, the samples are incubated for 45 min, 4° C., in the dark. Between each reaction, a washing is carried out with 2 ml of PBS/1% BSA. At the last step, the cells are taken up with 0.5 ml of PBS.

B1: Anti-CEA 25 VHH (VHH)
VHH: EVQLVESGGGLVQAGDSLTLTCTSPTLTFTPYRMGWYRQAPGKQRDLVADISGGDGRTTNYADFAKGRFTISRDNVKNAVYLQMNNLKPEDTAIYYCNTYVAIVGHARSWGQGTQVTVSS
notes: Purified from E. coli periplasm; c-myc tag recognised by mAb 9E10; also called anti-CEA VHH clone 25
- Ka [1]: 3.15e+07 M⁻¹
- Kd [1]: 0.0317 µM
- koff [1]: 0.0036 s⁻¹
- kon [1]: 113000 M⁻¹ s⁻¹
- binding result [2]: no binding (tested: 1 to 5 µg/ml)

B2: Anti-CD16 c21 VHH (VHH)
VHH: EVQLVESGGELVQAGGSLRLSCAASGLTFSSYNMGWFRRAPGKEREFVASITWSGRDTFYADSVKGRFTISRDNAKNTVYLQMSSLKPEDTAVYYCAANPWPVAAPRSGTYWGQGTQVTVSS
- Ka [3]: 1.03e+08 M⁻¹
- Kd [3]: 0.0097 µM
- koff [3]: 0.00279 s⁻¹
- kon [3]: 286000 M⁻¹ s⁻¹

B3: Anti-CD16 c72 VHH (VHH)
VHH: EVQLVESGGGLVQPGGSLTLSCVAAGSIFTFAMSWYRQAPRKERELVARIGTDDETMYKDSVKGRFTISRDNVKRTAGLQMNNLKPEDTAVYYCNARTDYRDWTVREYWGQGTQVTVSS
- Ka [3]: 1.06e+07 M⁻¹
- Kd [3]: 0.0946 µM
- koff [3]: 0.0037 s⁻¹
- kon [3]: 39000 M⁻¹ s⁻¹

B4: Anti-CEA 43 VHH (VHH)
VHH: EVQLVESGGGLVQAGGSLTLSCTSSTLTFTPYRMGWYRQTPGKQRDLVADISPGDGSTKNYAGFAQGRFTISRDNIKNTVYLQMNDLKPEDTAVYYCNTYVAFVGRARTWGQGTQVTVTS
notes: Purified from E. coli periplasm; c-myc tag recognised by mAb 9E10; also called anti-CEA VHH clone 43
- Ka [1]: 9.72e+07 M⁻¹
- Kd [1]: 0.0103 µM
- koff [1]: 0.00183 s⁻¹
- kon [1]: 178000 M⁻¹ s⁻¹
- binding result [2]: no binding (tested: 1 to 5 µg/ml)

B5: Anti-CEA 3 VHH (VHH)
VHH: EVQLVESGGGLVQAGGSLRLSCTSSTVTFTPYQMGWYRQAPGKQRALVADISTGGSRTNYADFAKGRFTISRDDVKNTVYLQMNNLKPEDTAVYYCNTYYAMIGHARNWGQGTQVTVSS
notes: Purified from E. coli periplasm; c-myc tag recognised by mAb 9E10; also called anti-CEA VHH clone 3
- Ka [1]: 7.38e+07 M⁻¹
- Kd [1]: 0.0136 µM
- koff [1]: 0.00168 s⁻¹
- kon [1]: 124000 M⁻¹ s⁻¹

B6: Anti-CD16 c13 VHH (VHH)
VHH: EVQLVESGGGLVQPGGSLRLSCSFPGSIFSLTMGWYRQAPGKERELVTSATPGGDTNYADFVKGRFTISRDNARSIIYLQMNSLKPEDTAVYYCYARTRNWGTVWGQGTQVTVSS
- Ka [3]: 9.4e+06 M⁻¹
- Kd [3]: 0.101 µM
- koff [3]: 0.00567 s⁻¹
- kon [3]: 53000 M⁻¹ s⁻¹

B7: Anti-CEA 17 VHH (VHH)
VHH: EVQLVESGGGFVQAGESLTLSCTSSTLTFTPYRMAWYRQAPGKQRDLVADISSGDGRTTNYADFAKGRFTISRDNIKNTVFLRMTNLKPEDTAVYYCNTFVSFVGIARSWGQGTQVTVSS
notes: also called VHH CEA 17; anti-CEA VHH clone 17
- binding result [4]: no binding
